# Values quoted from earlier work as cited in publication PMC4853784.
# Molecular target: V1b receptor (Homo sapiens) (UniProt P47901)
# Assay: radioligand
# UniProt P47901, sequence (P47901 whole entry): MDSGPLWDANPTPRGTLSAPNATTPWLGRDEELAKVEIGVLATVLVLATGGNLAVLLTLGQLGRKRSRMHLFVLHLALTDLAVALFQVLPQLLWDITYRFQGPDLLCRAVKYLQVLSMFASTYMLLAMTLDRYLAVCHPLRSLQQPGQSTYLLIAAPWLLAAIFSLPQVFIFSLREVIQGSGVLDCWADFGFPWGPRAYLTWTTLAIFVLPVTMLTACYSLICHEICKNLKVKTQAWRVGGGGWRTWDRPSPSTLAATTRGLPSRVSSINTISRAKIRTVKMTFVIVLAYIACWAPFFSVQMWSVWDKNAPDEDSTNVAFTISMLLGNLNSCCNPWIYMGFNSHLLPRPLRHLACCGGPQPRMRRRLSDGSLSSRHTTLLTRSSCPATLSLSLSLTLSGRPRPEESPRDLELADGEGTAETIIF
substance,measurement,value
vasopressin (from UniProt P01185),Kd,1.8 nM
